B1: CsSCPL11-IA (Camellia sinensis var. sinensis) (protein)
chain: ELPFKLETGYALIYIRVNESELFYYFIESQGNPQEDPIFLWLPGGPGCSSFHELVYGFGMVKILIVKTASIIFLDAPVGTGFSYSRTADGWPTSDSKSAEQSYQFLREWFDEHPQYLAVQLFVGKGNKDGVKPFMNLKGYLLGSPRTDSVIDENSKVVFAHRMALISDEIYENAKTGCNDTYVSIDPANTACIVALGNIKTCIKDLFRNDILEPKCVFATPDPGEEPAARRSLEEGPSDFLLSPPMIPNLWCRNFNYVLSYIWSNDDTVQEVLHVRKGSVLNWERCNKSLSYTKDILTVVPVHEELKELGLEVLVETGDRDMVVPFVGTVKWIKSLNLTVVNDWRPWFVDGQVAGYTIKYSEHGYRLTYATVKGAGHTAPEYYRMECYYMFDRWIHYYPI
notes: N-terminal 50 residues (transmembrane region) deleted, Met inserted; His-tag (pDEST17); E. coli; nickel resin, partially purified; full protein 450 residues, 51 kD
B2: CsSCPL13-IA (Camellia sinensis var. sinensis) (protein)
chain: MVQVEAIAASQKQLLQKPSCAWIRWVQNHLLLQLLLAQPVLGGQIVKYLPGFDGELPFKLETGQLKSDDGFVVDFDRYISVDDSELFYYFIESEGNPQEDPLFLWLTGGPGCTSFSGLLYEVGPMEYDIDNYTGGLPKLKYYPYARTKTASMIFLDAPVGTGFSYARTPGGWPTSDTKSAEQSYQFLRKWLVEHPQFLSVQLFVGGDSYAGLAVPLITKKIIDGNKEKAEPYMNIKGYLVGCPGTDSVIDGNSRVDFAHRMALISDEIYENAKRSCNENYINVDPANTACITAMGAVQKCLEDLSDKDILKPKCDLSSQDHPEGPDRRFLKEGSSEFLLSPSTFPKSWCTTLKLTHNSIWANDDGVQEALHVRKGTVPRWERCNNSLSYTKDVSSVIAVHKELSRSSLEVLVESGDHDISVPYMGTLKWIKSLNLTLVDDWRPWFVDNQVAGYTMKYSEEHGYHLTFATIKGAGHPAPEYYRRECYCLFDRWINYNPV
notes: full length, His-tag (pDEST17); E. coli; nickel resin, partially purified; 498 residues, 56 kD
B3: CsSCPL14-IA (Camellia sinensis var. sinensis) (protein)
chain: SVDDSELFYYFIESEGNPQEDPLFLWLTGGPGCTSFSGLLYEVGPMEYDIDNYTGGLPKLKYYPYARTKTASMIFLDAPVGTGFSYARTPGGWPTSDTKSAEQSYQFLRKWLVEHPQFLSVQLFVGGDSYAGLTVPLITKKIIDGNKEKAKPYMNIKGYLVGCPGTDSVIDGNSRVDFAHRMALISDEIYENAKRSCNENYINVDPANTACITAMGAIQKCLKDLSDKDILKPKCDLSSQDHPEGPDRRFLKEGSSEFLLSPSTFPKPWCTTLKLTHNSIWANDDGVQEALHVRKGTVPRWERCNNSLSYTQDVLSVIAVHKELSRSSLEVLVERFFIFFLLLPAANRPSLPSRPPDNLTHHS
notes: N-terminal 50 residues (transmembrane region) deleted, Met inserted; His-tag (pDEST17); E. coli; nickel resin, partially purified; full protein 413 residues, 46 kD

Substrate: Oc1cc(O)c2c(c1)O[C@H](c1cc(O)c(O)c(O)c1)[C@H](O)C2
Assay: purified protein
Conditions: 0.4 mM PGG as donor, potassium phosphate pH 6.0, 30 °C

**Q.** With B1 as the protein, how does the Km read?
**A.** 40.67 ± 5.56 µM

**Q.** What about the Vmax of the same protein?
**A.** 13.2 µmol/min/mg

**Q.** And the kcat?
**A.** 219 s⁻¹

**Q.** What about the kcat/Km of the same protein?
**A.** 5.39e+06 M⁻¹ s⁻¹

**Q.** Which results are given for B2?
**A.** Km: 49.73 ± 8.36 µM; Vmax: 20.4 µmol/min/mg; kcat: 340 s⁻¹; kcat/Km: 6.84e+06 M⁻¹ s⁻¹

**Q.** B3 was tested. Which Km did it give?
**A.** 103.38 ± 15.63 µM

**Q.** And the Vmax?
**A.** 62.5 µmol/min/mg

**Q.** What about the kcat of the same protein?
**A.** 1040 s⁻¹

**Q.** What about the kcat/Km of the same protein?
**A.** 1.01e+07 M⁻¹ s⁻¹

Substrate: O=C(OC[C@H]1O[C@@H](OC(=O)c2cc(O)c(O)c(O)c2)[C@H](OC(=O)c2cc(O)c(O)c(O)c2)[C@@H](OC(=O)c2cc(O)c(O)c(O)c2)[C@@H]1OC(=O)c1cc(O)c(O)c(O)c1)c1cc(O)c(O)c(O)c1
Assay: HPLC galloyltransferase assay, Lineweaver-Burk
Format: biochemical, Camellia sinensis
Conditions: 1.0 mM EGC as acceptor, potassium phosphate pH 6.0, 30 °C

**Q.** How did the Km turn out when B1 was run?
**A.** 13.34 ± 1.78 µM

**Q.** What about the Vmax of the same protein?
**A.** 4.05 µmol/min/mg

**Q.** And the kcat?
**A.** 67.5 ± 7.34 s⁻¹

**Q.** And the kcat/Km?
**A.** 5.06e+06 ± 970000 M⁻¹ s⁻¹

**Q.** Which results are given for B2?
**A.** Km: 10.43 ± 1.25 µM; Vmax: 3.67 µmol/min/mg; kcat: 61 ± 8.82 s⁻¹; kcat/Km: 5.85e+06 ± 840000 M⁻¹ s⁻¹

**Q.** For B3, which Km is on record?
**A.** 20.81 ± 3.51 µM

**Q.** What about the Vmax of the same protein?
**A.** 10.6 µmol/min/mg

**Q.** And the kcat?
**A.** 177 ± 22.8 s⁻¹

**Q.** And the kcat/Km?
**A.** 8.52e+06 ± 1.38e+06 M⁻¹ s⁻¹

Substrate: Oc1cc(O)c2c(c1)O[C@H](c1ccc(O)c(O)c1)[C@H](O)C2
Assay: HPLC galloyltransferase assay, Lineweaver-Burk
Format: biochemical, Camellia sinensis
Conditions: 0.4 mM PGG as donor, potassium phosphate pH 6.0, 30 °C

**Q.** What does the source list for B1?
**A.** Km: 85.39 ± 10.62 µM; Vmax: 16.1 µmol/min/mg; kcat: 269 ± 22.8 s⁻¹; kcat/Km: 3.14e+06 ± 640000 M⁻¹ s⁻¹

**Q.** How did the Km turn out when B2 was run?
**A.** 160.41 ± 21.2 µM

**Q.** What about the Vmax of the same protein?
**A.** 37 µmol/min/mg

**Q.** What about the kcat of the same protein?
**A.** 617 ± 62.5 s⁻¹

**Q.** And the kcat/Km?
**A.** 3.85e+06 ± 420000 M⁻¹ s⁻¹

**Q.** With B3 as the protein, how does the Km read?
**A.** 64.28 ± 0.81 µM

**Q.** What about the Vmax of the same protein?
**A.** 20 µmol/min/mg

**Q.** And the kcat?
**A.** 333 ± 35.2 s⁻¹

**Q.** And the kcat/Km?
**A.** 5.19e+06 ± 480000 M⁻¹ s⁻¹

From PMC7330524, “Genome-Wide Analysis of Serine Carboxypeptidase-Like Acyltransferase Gene Family for Evolution and Characterization of Enzymes Involved in the Biosynthesis of Galloylated Catechins in the Tea Plant (Camellia sinensis)” (Frontiers in Plant Science, 2020)
